Reference: the PETadex activity labels (doi:10.1016/j.ijbiomac.2024.137732)

Assays:
gfPET [1] = assay: Proxy for plastic degradation [Released monomer concentration (HPLC/LC-MS) (MHET+BHET+TPA)]; conditions: pH 9
gfPET [2] = assay: Proxy for plastic degradation [Released monomer concentration (HPLC/LC-MS) (TPA+MHET+BHET)]

B1: unnamed (protein)
chain: QELQEDWWRTGKYAIEDIADPVYSLDEEYMRDTPNLYLPKGKTGKLPVVIVIHGWGGTKEQMQPTAQLLASHGMLVLNYTAVDQNQPFQWLDGLVAAYTLLEGENRRPGSKIYNRVDFQRIGLLGHSMGAAGVLHIAAMEKPNGLRGKIKTVVSMMPYHGTTSTFTDNIAGGKDKLGCDISSTPNATLIISAELDPTNEPIGGYEFYQTLKRNKRVFFSLKGAKHIDWMKERDKKYSVAMPVITAWMLTYLCGETQYESYFREGGHYFEKWVRETLKGNVKVGRGEFPAFEIKEP
gfPET [1]
  Proxy for plastic degradation: 4 µM

B2: unnamed (protein)
chain: ASEQSTKNITNVTTESDVSVYRDLMLVAGKYVFYPADFETTTKKYPVVTWANGSWCPIQTYLPIIYGLVKAGYIVVADTDLLTDDGKSTVDSVSYIIKQNKNKNSMFYKRINTKQIGSTGHSLGGQAAVNASAKDSRIKAIVSLAGKSVADEAAKVTVPALYLSGTLDMIVPSKDYVYPSYKASKGPAAYASFNNMVHFGVWIAPGNYVKYTVAWFDVYLKGDKSKLSMFKKGGDLSTDDFWINYESKNL
gfPET [2]; pH 6
  Proxy for plastic degradation: 2.5 µM
gfPET [2]; pH 7
  Proxy for plastic degradation: 5 µM
gfPET [2]; pH 8
  Proxy for plastic degradation: 10 µM
gfPET [2]; pH 9
  Proxy for plastic degradation: 15 µM
gfPET [2]; pH 9, 25 °C
  Proxy for plastic degradation: 4 µM
gfPET [2]; pH 9, 30 °C
  Proxy for plastic degradation: 6.5 µM
gfPET [2]; pH 9, 35 °C
  Proxy for plastic degradation: 12 µM
gfPET [2]; pH 9, 37 °C
  Proxy for plastic degradation: 16 µM
gfPET [2]; pH 9, 40 °C
  Proxy for plastic degradation: 20 µM
gfPET [2]; pH 9, 45 °C
  Proxy for plastic degradation: 11 µM
gfPET [2]; pH 10
  Proxy for plastic degradation: 25 µM
gfPET [2]; pH 11
  Proxy for plastic degradation: 50 µM
gfPET [1]
  Proxy for plastic degradation: 17.5 µM

B3: unnamed (protein)
chain: NADQFVQFESAAVKPTQFQERNARARGEAVNAVPGTPLQGYLTRPQGEGPFPAIVILHGCAGIHPSVKETWPERLASWGYVVLVVDSFSTRGIQNTCNNLLVDRVYDAYGALEFLSNYSFVDPKRIAVMGFSAGGIATLEAVQFGGAERLMEHKFKAAVAYYPICKAANGDMAVPTLVLVGDLDDWSPAEQCRTMMKQRSGAGSPVQLNVYKGAHHAFDAPEFKTGFEAYGHWIEYNGIAADQSVSDVHAFLRGVFGN
gfPET [1]
  Proxy for plastic degradation: 3.8 µM

B4: unnamed (protein)
chain: QTIEMAQSQIDKLAKIETDSLASYADSYTYDEEYFAENEPATIYYPKNLEGKVPAVIVVHGFNCKQKFLQKIPQHLSSHGFICITYTALDQKRPFQWPPGLMAAYEILRGESMRPDSPIYDHVDLDAVALVGHSMGGAGVLHTAMMPYPNGLRGKIKTVVGLNPYNGGPLMAEVGGGANDNLGDDLSHLDIPTMIVTGSYDIVAFPWKSFAFYNSLRGPAKHAFLSIDRMDHADWYFIPSEPKYPILRAILYSWLRAYLADDSEYRDYFVDRPGSSFDKYLKPLLSNTPNPLTRGGESFPPYVLSEEEDPLGTTN
gfPET [1]
  Proxy for plastic degradation: 2.4 µM

B5: unnamed (protein)
chain: QELQENWWSNGKYAIEDVADPVYSFDEEYMKDVPNIYLPIGKTGKLPVVIVVHGWAAYKEQMHDTAQLLASHGMLVLVYTAMDQNQPFQWLDGIIAAYTLLEGENRRPGSKIHNRVDFQRIGLLGHSMGGTGVLFSAAMEKPNGLRGKIKTVVSLMPYHGTTNFISDAVAGGKDKLGCDVSATPNATLIISGEVDEVNEPIGGYEFYQTLTQNKRVFFSMKGTHHNDWRNKEGKESENYPIVMPVVSSWMLAYLCGERQYESFFKEGGLYFEKWIRPTLKGNVKVGRGEFPAFEIKEP
gfPET [1]
  Proxy for plastic degradation: 4 µM
